Holding throughout (test): cell-based or functional assay
One test deals with T1, human GIP receptor (human, UniProt P48546 22-466).
T1 sequence (looked up): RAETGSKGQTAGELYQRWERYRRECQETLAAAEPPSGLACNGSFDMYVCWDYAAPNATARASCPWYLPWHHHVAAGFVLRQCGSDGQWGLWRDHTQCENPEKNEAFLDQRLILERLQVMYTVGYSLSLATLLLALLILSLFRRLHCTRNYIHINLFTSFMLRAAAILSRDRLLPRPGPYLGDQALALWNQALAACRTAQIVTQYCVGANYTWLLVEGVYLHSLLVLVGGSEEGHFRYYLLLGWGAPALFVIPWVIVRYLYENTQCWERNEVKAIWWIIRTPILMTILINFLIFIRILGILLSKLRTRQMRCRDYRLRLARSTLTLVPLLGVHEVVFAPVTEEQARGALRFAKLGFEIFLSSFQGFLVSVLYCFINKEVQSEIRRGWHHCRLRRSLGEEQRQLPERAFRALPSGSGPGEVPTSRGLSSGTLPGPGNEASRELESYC

Another test has as its target human GCG receptor (human, UniProt P47871 26-477).
The target of a further test is human GLP-1 receptor (human, UniProt P43220 24-463).

Bridge positions count the residues as written; N and C are the ends. Square brackets hold non-standard residues; d marks the D form. Ends that are not written are not given here. * marks the point of attachment. Acetyl(2-(4-imidazolyl)) = O=C(Cc1c[nH]cn1)*; Aib = CC(C)(N)C(=O)O

Sequence of human GCG receptor (P47871 26-477): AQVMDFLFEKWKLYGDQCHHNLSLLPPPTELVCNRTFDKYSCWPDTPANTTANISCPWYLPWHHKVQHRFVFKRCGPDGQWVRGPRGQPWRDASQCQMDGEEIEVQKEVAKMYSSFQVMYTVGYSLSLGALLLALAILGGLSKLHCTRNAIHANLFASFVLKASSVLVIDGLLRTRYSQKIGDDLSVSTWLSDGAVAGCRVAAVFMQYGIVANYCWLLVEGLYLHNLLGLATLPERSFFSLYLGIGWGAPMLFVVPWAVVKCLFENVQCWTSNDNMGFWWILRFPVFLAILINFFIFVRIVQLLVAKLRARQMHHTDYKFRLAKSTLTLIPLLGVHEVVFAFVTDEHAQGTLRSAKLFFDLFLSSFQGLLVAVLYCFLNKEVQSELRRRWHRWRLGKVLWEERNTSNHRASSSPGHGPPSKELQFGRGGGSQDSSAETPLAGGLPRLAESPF

For H[Aib]QGTFTSDVSKYLDGQAAQEFVAWLLKGC [Triple agonist of SEQ ID NO: 8], the “In vitro activity compared to native peptide (%) vs GIP” value (from here on “In vitro activity … (%) vs GIP”) in the test with human GIP receptor is less than 0.1%. For the same molecule, in the test with human GCG receptor, the “In vitro activity compared to native peptide (%) vs Glucagon” value (“In vitro activity … (%) vs Glucagon” for short) is 0.1%. Also, the “In vitro activity compared to native peptide (%) vs GLP-1” value (from here on “In vitro activity … (%) vs GLP-1”) with human GLP-1 receptor was 14.2%.
Consider Y[Aib]QGTFTSDYSKYLDEKAAKEFVQWLLDHHPSSGQPPPSC (bridge 16-20) [Triple agonist of SEQ ID NO: 75], for which the “In vitro activity … (%) vs GIP” value in the test with human GIP receptor came out at 18%. Also, the “In vitro activity … (%) vs Glucagon” value with human GCG receptor was 8.5%. Further, the “In vitro activity … (%) vs GLP-1” value in the test with human GLP-1 receptor was 35.1%.
{Acetyl(2-(4-imidazolyl))}-[Aib]QGTFTSDKSKYLDERAAQDFVQWLLDGGPSSGAPPPS [Triple agonist of SEQ ID NO: 62]: the “In vitro activity … (%) vs GIP” value with human GIP receptor was less than 0.1%. In addition, in the test with human GCG receptor, the “In vitro activity … (%) vs Glucagon” value is less than 0.1%. For the same molecule, the “In vitro activity … (%) vs GLP-1” value with human GLP-1 receptor amounted to 5.2%.
With Y[Aib]QGTFTSDYSKYLDEKAAKDFVQWLLDHHPSSGQPPPSC (bridge 16-20) [Triple agonist of SEQ ID NO: 77], in the test with human GIP receptor, the “In vitro activity … (%) vs GIP” value was 35.5%. The “In vitro activity … (%) vs Glucagon” value with human GCG receptor is 12.2%. Further, the “In vitro activity … (%) vs GLP-1” value with human GLP-1 receptor was found to be 38.7%.
Take Y[Aib]QGTFTSDYSKYLDECAAKEFVQWLLDHHPSSGQPPPS (bridge 16-20) [Triple agonist of SEQ ID NO: 64]: in the test with human GIP receptor, the “In vitro activity … (%) vs GIP” value amounted to 92.9%. In addition, the “In vitro activity … (%) vs Glucagon” value with human GCG receptor amounted to 60.1%. Also, the “In vitro activity … (%) vs GLP-1” value in the test with human GLP-1 receptor turned out to be 64.6%.

B1: Triple agonist of SEQ ID NO: 67 (peptide)
peptide: Y[Aib]QGTFTSDYSKYLDECAAKDFVQWLLDHHPSSGQPPPS
modifications: bridge (positions not given here); ends not checked; also: ring formation between underlined amino acids, places not given here
In the case of B1, in the test with human GIP receptor, the “In vitro activity … (%) vs GIP” value amounted to 39.8%. The “In vitro activity … (%) vs Glucagon” value with human GCG receptor was 46.2%. For the same molecule, the “In vitro activity … (%) vs GLP-1” value in the test with human GLP-1 receptor was determined as 28.5%.
For Y[Aib]QGTFTSDYSKYLDEKRAKDFVQWLLDHHPSSGQPPPSC (bridge 16-20) [Triple agonist of SEQ ID NO: 76], in that order: 11.7%, 47.6% and 10.3%.
For Y[Aib]QGTFTSDCSKYLDERAAKDFVQWLLDHHPSSGQPPPS (bridge 16-20) [Triple agonist of SEQ ID NO: 72], in that order: 1.6%, 1% and 11.5%.
Consider H[Aib]EGTFTSDYSIAMDEIHQKDFVDWLLAEKC (bridge 16-20) [Triple agonist of SEQ ID NO: 80], for which the “In vitro activity … (%) vs GIP” value with human GIP receptor worked out at 0.1%. The “In vitro activity … (%) vs Glucagon” value with human GCG receptor stood at 0%. In addition, the “In vitro activity … (%) vs GLP-1” value in the test with human GLP-1 receptor stood at 8.1%.
The like results for {Acetyl(2-(4-imidazolyl))}-[Aib]QGTFTSDYSKCLDEKRAKEFVQWLLDHHPSSGQPPPS (bridge 15-19) [Triple agonist of SEQ ID NO: 74] were, in that order, 1%, 0.9% and 12.9%.
As for Y[Aib]QGTFTSDYSKYLDERACKDFVQWLLDHHPSSGQPPPS (bridge 16-20) [Triple agonist of SEQ ID NO: 71], the “In vitro activity … (%) vs GIP” value with human GIP receptor is 94.7%. The “In vitro activity … (%) vs Glucagon” value in the test with human GCG receptor came to 12.7%. The “In vitro activity … (%) vs GLP-1” value in the test with human GLP-1 receptor is 90.1%.
The like results for {Acetyl(2-(4-imidazolyl))}-[Aib]QGTFTSDYSKYLDECRAKEFVQWLLDHHPSSGQPPPS (bridge 15-19) [Triple agonist of SEQ ID NO: 73] were, in that order, 3%, 5.4% and 22.6%.
The like results for Y[Aib]QGTFTSDYSKCLDEKRAKDFVQWLLDHHPSSGQPPPS (bridge 16-20) [Triple agonist of SEQ ID NO: 70] were, in that order, 64.4%, 71.3% and 15.1%.
For H[Aib]QGTFTSDVSKYLDGQAAKEFVAWLLKGC [Triple agonist of SEQ ID NO: 7], in that order: less than 0.1%, less than 0.1% and 13.7%.
With {Acetyl(2-(4-imidazolyl))}-[Aib]QGTFTSDYSICMDEKHQKDFVNWLLNTK (bridge 15-19) [Triple agonist of SEQ ID NO: 59], the “In vitro activity … (%) vs GIP” value with human GIP receptor came to 4%. Moreover, the “In vitro activity … (%) vs Glucagon” value with human GCG receptor was less than 0.1%. Moreover, the “In vitro activity … (%) vs GLP-1” value in the test with human GLP-1 receptor came to 40.3%.
For {Acetyl(2-(4-imidazolyl))}-[Aib]QGTFTSDYSIAMDEIACKDFVNWLLNTK (bridge 15-19) [Triple agonist of SEQ ID NO: 61], in that order: 2.8%, less than 0.1% and 59.8%.
For H[Aib]EGTFTSDYSIAMDEIHQKDFVNWLLAQKC (bridge 16-20) [Triple agonist of SEQ ID NO: 79], in that order: 1.4%, 4.9% and 41.5%.
The like results for {Acetyl(2-(4-imidazolyl))}-[Aib]QGTFTSDCSKYLDERAAQDFVQWLLDGGPSSGAPPPS [Triple agonist of SEQ ID NO: 63] were, in that order, less than 0.1%, less than 0.1% and 15.3%.
As to H[Aib]QGTFTSDYSIAMDEIHQKDFVNWLLNTC (bridge 16-20) [Triple agonist of SEQ ID NO: 57], the “In vitro activity … (%) vs GIP” value with human GIP receptor is 0.3%. In addition, in the test with human GCG receptor, the “In vitro activity … (%) vs Glucagon” value was less than 0.1%. Moreover, in the test with human GLP-1 receptor, the “In vitro activity … (%) vs GLP-1” value is 11.7%.
For Y[Aib]QGTFTSDYSKCLDERAAKEFVQWLLDHHPSSGQPPPS (bridge 16-20) [Triple agonist of SEQ ID NO: 69], in that order: 62.8%, 9.6% and 24.3%.
The like results for H[Aib]QGTFTSDYSKYLDEKRQKEFVQWLLNTKC (bridge 16-20) [Triple agonist of SEQ ID NO: 58] were, in that order, 0.2%, 2.6% and 39.1%.
For H[Aib]QGTFTSDYSKCLDEKRAKEFVQWLLDHHPSSGQPPPS (bridge 16-20) [Triple agonist of SEQ ID NO: 65], in that order: 11.6%, 25.2% and 95.4%.
With Y[Aib]QGTFTSDYSKCLDEKAAKEFVQWLLDHHPSSGQPPPS (bridge 16-20) [Triple agonist of SEQ ID NO: 68], in the test with human GIP receptor, the “In vitro activity … (%) vs GIP” value was found to be 107%. In addition, the “In vitro activity … (%) vs Glucagon” value with human GCG receptor was determined as 8.8%. Moreover, the “In vitro activity … (%) vs GLP-1” value with human GLP-1 receptor was found to be 27.9%.
The like results for H[Aib]QGTFTSDYSKYLDEKRQKEFVQWLLDTKC (bridge 16-20) [Triple agonist of SEQ ID NO: 78] were, in that order, 0.12%, 14% and 51%.
For Y[Aib]QGTFTSDYSKYLDECRAKDFVQWLLDHHPSSGQPPPS (bridge 16-20) [Triple agonist of SEQ ID NO: 66], in that order: 17.2%, 172% and 15.8%.
For {Acetyl(2-(4-imidazolyl))}-[Aib]QGTFTSDYSIAMDEKHCKDFVNWLLNTK (bridge 15-19) [Triple agonist of SEQ ID NO: 60], in that order: 18.2%, less than 0.1% and 106%.
